Assay results from publication PMC6769022, “Identification of an adhesive interface for the non-clustered δ1 protocadherin-1 involved in respiratory diseases” (Communications Biology, 2019).
Residue numbers refer to the chain shown, from its start. In names and notes the source's numbering stands.

B1: Hs PCDH1 EC1-4bc (domain or fragment, human)
chain: TRVVYKVPEEQPPNTLIGSLAADYGFPDVGHLYKLEVGAPYLRVDGKTGDIFTTETSIDREGLRECQNQLPGDPCILEFEVSITDLVQNGSPRLLEGQIEVQDINDNTPNFASPVITLAIPENTNIGSLFPIPLASDRDAGPNGVASYELQAGPEAQELFGLQVAEDQEEKQPQLIVMGNLDRERWDSYDLTIKVQDGGSPPRASSALLRVTVLDTNDNAPKFERPSYEAELSENSPIGHSVIQVKANDSDQGANAEIEYTFHQAPEVVRRLLRLDRNTGLITVQGPVDREDLSTLRFSVLAKDRGTNPKSARAQVVVTVKDMNDNAPTIEIRGIGLVTHQDGMANISEDVAEETAVALVQVSDRDEGENAAVTCVVAGDVPFQLRQASETGSDSKKKYFLQTTTPLDYEKVKDYTIEIVAVDSGNPPLSSTNSLKVQVVDVNDNA
notes: Protocadherin-1 (PCDH1), human, repeats EC1 to EC4, without signal peptide; also called PCDH1 EC1-4 (bacterially produced, wild type)
B2: PCDH1 EC1-4Fc (Fc fusion, human)
chain: B1 chain
notes: Protocadherin-1 (PCDH1), human, repeats EC1 to EC4; native signal peptide in the construct; Vector CMV:N1-Fc; PDB 6MGA holds the His-tagged mammalian EC1-4 fragment; source: HEK293T, transfected, secreted into serum-free medium, captured on protein G Dynabeads
B3: PCDH1 EC1-4 C375S (domain or fragment, human)
chain: B1 chain with C375S
notes: Protocadherin-1 (PCDH1), human, repeats EC1 to EC4, without signal peptide; Parent (wild-type bacterial EC1-4) is in PDB 6BX7; also called bacterially produced PCDH1 EC1-4 C375S
B4: Hs PCDH1 EC1-4mc (domain or fragment, human)
chain: B1 chain
modifications: sugars observed at N248 (N-linked) and S430 (O-linked) in the structure
notes: Protocadherin-1 (PCDH1), human, repeats EC1 to EC4; Vector CMV:N1-His; also called PCDH1 EC1-4His
B5: PCDH1 EC1-7Fc (Fc fusion, human, UniProt Q08174 58-852, looked up)
chain: TRVVYKVPEEQPPNTLIGSLAADYGFPDVGHLYKLEVGAPYLRVDGKTGDIFTTETSIDREGLRECQNQLPGDPCILEFEVSITDLVQNGSPRLLEGQIEVQDINDNTPNFASPVITLAIPENTNIGSLFPIPLASDRDAGPNGVASYELQAGPEAQELFGLQVAEDQEEKQPQLIVMGNLDRERWDSYDLTIKVQDGGSPPRASSALLRVTVLDTNDNAPKFERPSYEAELSENSPIGHSVIQVKANDSDQGANAEIEYTFHQAPEVVRRLLRLDRNTGLITVQGPVDREDLSTLRFSVLAKDRGTNPKSARAQVVVTVKDMNDNAPTIEIRGIGLVTHQDGMANISEDVAEETAVALVQVSDRDEGENAAVTCVVAGDVPFQLRQASETGSDSKKKYFLQTTTPLDYEKVKDYTIEIVAVDSGNPPLSSTNSLKVQVVDVNDNAPVFTQSVTEVAFPENNKPGEVIAEITASDADSGSNAELVYSLEPEPAAKGLFTISPETGEIQVKTSLDREQRESYELKVVAADRGSPSLQGTATVLVNVLDCNDNDPKFMLSGYNFSVMENMPALSPVGMVTVIDGDKGENAQVQLSVEQDNGDFVIQNGTGTILSSLSFDREQQSTYTFQLKAVDGGVPPRSAYVGVTINVLDENDNAPYITAPSNTSHKLLTPQTRLGETVSQVAAEDFDSGVNAELIYSIAGGNPYGLFQIGSHSGAITLEKEIERRHHGLHRLVVKVSDRGKPPRYGTALVHLYVNETLANRTLLETLLGHSLDTPLDIDIAGDPEYERSKQRGN
notes: Protocadherin-1 (PCDH1), human, repeats EC1 to EC7 (full-length extracellular domain); native signal peptide in the construct; Vector CMV:N1-Fc; Fc detected with anti-human IgG; also called human Protocadherin-1 full-length extracellular domain, Fc-tagged; wild-type PCDH1 EC1-7Fc; source: HEK293T, transfected, secreted into serum-free medium, captured on protein G Dynabeads
B6: PCDH1 EC1-7Fc V115R (Fc fusion, human, UniProt Q08174 58-852, looked up)
chain: B5 chain with V115R
notes: Protocadherin-1 (PCDH1), human, repeats EC1 to EC7; native signal peptide in the construct; Vector CMV:N1-Fc; source: HEK293T, transfected, secreted into serum-free medium, captured on protein G Dynabeads
B7: PCDH1 EC1-7Fc C375S C548S (Fc fusion, human, UniProt Q08174 58-852, looked up)
chain: B5 chain with C375S, C548S
notes: as for B6
B8: PCDH1 EC1-5 C375S C548S (domain or fragment)
chain: MTRVVYKVPEEQPPNTLIGSLAADYGFPDVGHLYKLEVGAPYLRVDGKTGDIFTTETSIDREGLRECQNQLPGDPCILEFEVSITDLVQNGSPRLLEGQIEVQDINDNTPNFASPVITLAIPENTNIGSLFPIPLASDRDAGPNGVASYELQAGPEAQELFGLQVAEDQEEKQPQLIVMGNLDRERWDSYDLTIKVQDGGSPPRASSALLRVTVLDTNDNAPKFERPSYEAELSENSPIGHSVIQVKANDSDQGANAEIEYTFHQAPEVVRRLLRLDRNTGLITVQGPVDREDLSTLRFSVLAKDRGTNPKSARAQVVVTVKDMNDNAPTIEIRGIGLVTHQDGMANISEDVAEETAVALVQVSDRDEGENAAVTSVVAGDVPFQLRQASETGSDSKKKYFLQTTTPLDYEKVKDYTIEIVAVDSGNPPLSSTNSLKVQVVDVNDNAPVFTQSVTEVAFPENNKPGEVIAEITASDADSGSNAELVYSLEPEPAAKGLFTISPETGEIQVKTSLDREQRESYELKVVAADRGSPSLQGTATVLVNVLDSNDNDLEHHHHHH
B9: PCDH1 EC1-5 C375S C548S V115R (domain or fragment)
chain: B8 chain with V116R

Tests used:
[1] = molecular target: the molecule itself; assay: crystal structure; vapor diffusion at 4 °C; one molecule in the asymmetric unit, antiparallel dimers formed by crystal symmetry
[2] = molecular target: the molecule itself; assay: bead aggregation assay; Fc fusions from concentrated HEK293T medium bound to protein G Dynabeads, washed; binding buffer 50 mM TrisHCl pH 7.5, 100 mM NaCl, 10 mM KCl, 0.2% BSA with 2 mM CaCl2; 60 min without motion, then 1 and 2 min rocking; aggregates imaged
[3] = molecular target: the molecule itself; assay: AUC; sedimentation velocity, 50,000 r.p.m., 20 °C, 20 mM Tris-HCl pH 8.0, 150 mM KCl, 50 mM NaCl, 2 mM CaCl2; dimer to monomers

Row | Protein | binding result [2] | stoichiometry N [3] | also measured
1 | B1 | – | – | binding result [1]: binds
2 | B2 | binds | – | –
3 | B3 | – | 2 | Kd [3]: < 5 µM
4 | B4 | – | – | binding result [1]: binds
5 | B5 | binds | – | –
6 | B6 | binds | – | –
7 | B7 | binds | – | –
8 | B8 | – | 2 | Kd [3]: < 5 µM
9 | B9 | – | 2 | –
